Experimental data as given in paper doi:10.1101/276733 (bioRxiv, 2018).

Biological target: the molecule itself
Experiment: cryo-EM structure

B1: Arf1-GTP (natural protein)
chain: not shown
  stoichiometry N: 3
